Test results from IntAct's records for PubMed 23023224.

B1: Unconventional myosin-VI (Homo sapiens), Q9UM54 (parent)
chain: MEDGKPVWAPHPTDGFQMGNIVDIGPDSLTIEPLNQKGKTFLALINQVFPAEEDSKKDVEDNCSLMYLNEATLLHNIKVRYSKDRIYTYVANILIAVNPYFDIPKIYSSEAIKSYQGKSLGTRPPHVFAIADKAFRDMKVLKMSQSIIVSGESGAGKTENTKFVLRYLTESYGTGQDIDDRIVEANPLLEAFGNAKTVRNNNSSRFGKFVEIHFNEKSSVVGGFVSHYLLEKSRICVQGKEERNYHIFYRLCAGASEDIREKLHLSSPDNFRYLNRGCTRYFANKETDKQILQNRKSPEYLKAGSMKDPLLDDHGDFIRMCTAMKKIGLDDEEKLDLFRVVAGVLHLGNIDFEEAGSTSGGCNLKNKSAQSLEYCAELLGLDQDDLRVSLTTRVMLTTAGGTKGTVIKVPLKVEQANNARDALAKTVYSHLFDHVVNRVNQCFPFETSSYFIGVLDIAGFEYFEHNSFEQFCINYCNEKLQQFFNERILKEEQELYQKEGLGVNEVHYVDNQDCIDLIEAKLVGILDILDEENRLPQPSDQHFTSAVHQKHKDHFRLTIPRKSKLAVHRNIRDDEGFIIRHFAGAVCYETTQFVEKNNDALHMSLESLICESRDKFIRELFESSTNNNKDTKQKAGKLSFISVGNKFKTQLNLLLDKLRSTGASFIRCIKPNLKMTSHHFEGAQILSQLQCSGMVSVLDLMQGGYPSRASFHELYNMYKKYMPDKLARLDPRLFCKALFKALGLNENDYKFGLTKVFFRPGKFAEFDQIMKSDPDHLAELVKRVNHWLTCSRWKKVQWCSLSVIKLKNKIKYRAEACIKMQKTIRMWLCKRRHKPRIDGLVKVGTLKKRLDKFNEVVSVLKDGKPEMNKQIKNLEISIDTLMAKIKSTMMTQEQIQKEYDALVKSSEELLSALQKKKQQEEEAERLRRIQEEMEKERKRREEDEKRRRKEEEERRMKLEMEAKRKQEEEERKKREDDEKRIQAEVEAQLARQKEEESQQQAVLEQERRDRELALRIAQSEAELISDEAQADLALRRSLDSYPVSKNDGTRPKMTPEQMAKEMSEFLSRGPAVLATKAAAGTKKYDLSKWKYAELRDTINTSCDIELLAACREEFHRRLKVYHAWKSKNKKRNTETEQRAPKSVTDYDFAPFLNNSPQQNPAAQIPARQREIEMNRQQRFFRIPFIRPADQYKDPQSKKKGWWYAHFDGPWIARQMELHPDKPPILLVAGKDDMEMCELNLEETGLTRKRGAEILPRQFEEIWERCGGIQYLQNAIESRQARPTYATAMLQSLLK
B2: Unconventional myosin-VI (Homo sapiens), Q9UM54 (parent)
chain: B1 chain
partner: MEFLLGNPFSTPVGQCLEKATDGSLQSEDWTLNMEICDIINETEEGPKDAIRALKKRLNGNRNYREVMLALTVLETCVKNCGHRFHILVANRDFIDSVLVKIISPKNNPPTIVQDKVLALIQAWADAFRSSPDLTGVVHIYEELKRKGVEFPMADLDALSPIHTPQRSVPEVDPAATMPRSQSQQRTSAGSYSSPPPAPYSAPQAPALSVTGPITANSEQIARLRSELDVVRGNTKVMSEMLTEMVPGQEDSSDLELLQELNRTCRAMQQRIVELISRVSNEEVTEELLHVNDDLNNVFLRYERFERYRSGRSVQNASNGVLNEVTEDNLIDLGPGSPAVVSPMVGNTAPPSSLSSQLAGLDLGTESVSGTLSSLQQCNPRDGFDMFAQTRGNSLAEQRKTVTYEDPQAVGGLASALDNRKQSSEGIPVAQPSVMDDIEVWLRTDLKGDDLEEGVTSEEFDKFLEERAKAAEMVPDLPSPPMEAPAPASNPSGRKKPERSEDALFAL

Variants of: B1
Details: with TOM1, O60784-1
Sequence of TOM1, O60784-1 (O60784 whole entry): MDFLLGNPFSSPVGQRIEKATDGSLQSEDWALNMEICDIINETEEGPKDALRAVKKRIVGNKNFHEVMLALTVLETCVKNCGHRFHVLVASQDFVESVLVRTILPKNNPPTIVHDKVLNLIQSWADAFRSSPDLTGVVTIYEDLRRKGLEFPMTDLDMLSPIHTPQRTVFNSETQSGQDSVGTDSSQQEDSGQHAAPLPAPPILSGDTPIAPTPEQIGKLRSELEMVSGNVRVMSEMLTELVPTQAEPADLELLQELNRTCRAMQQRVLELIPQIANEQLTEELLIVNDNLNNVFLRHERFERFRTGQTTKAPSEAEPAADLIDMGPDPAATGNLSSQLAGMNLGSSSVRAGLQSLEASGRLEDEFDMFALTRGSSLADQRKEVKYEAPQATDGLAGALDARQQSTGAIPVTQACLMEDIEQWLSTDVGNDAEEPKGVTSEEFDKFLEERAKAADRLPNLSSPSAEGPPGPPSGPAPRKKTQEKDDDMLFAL

Row | effect of a mutation on the interaction | Variant
1 | disrupting interaction strength | W1202L

Variants of: B2
Details: with tm1l2_human TOM1L2, Q6ZVM7

Row | effect of a mutation on the interaction | Variant
2 | disrupting interaction strength | W1202L
